In US6667173B2, “Nucleic acids encoding platelet derived growth factor-alpha receptors” (The Schepens Eye Research Institute, priority 2000, dated 2003):

Columns and labels:
βPDGFR = target: T1, βPDGFR (Homo sapiens, UniProt P09619); test: Tyrosine phosphorylation of the βPDGFR in TGFβ- or PDGF-treated F cells; format: cell-based; conditions: Fβ cells; 1 ng/ml TGFβ1
T1 construct: expressed in transfected cells; host or cells: F cells (mouse embryo fibroblasts lacking both PDGFRs), giving Fβ

FCX^2, Fα and Fβ cells = test: Collagen gel contraction assay of cells with no PDGFRs, αPDGFR or βPDGFR; format: cell-based, mouse; conditions: 1 ng/ml TGFβ1; 24, 48, 72 hours
Method: The contraction assay was based on a previously described reference, Skuta, G. et al. (1999) J. Biol. Chem. 274:30163, with the following modifications. Fα cells were suspended in 1.5 mg/ml of neutralized collagen I (Cohesion vitrogen 100, Palo Alto, Calif.) at a density of 10^6 cells/ml, and were transferred into the 24-well plate (Falcon, Franklyn Lakes, N.J.) that had been preincubated with phosphate-buffer saline (PBS) with 5 mg/ml of bovine serum albumin (BSA) overnight. The gel was solidified by incubating at 37° C. for 90 minutes, and then the well was flooded with DMEM+5 mg/ml of BSA supplemented with an amount of vitreous such that the final concentration of vitreous in the culture medium was 1, 5 or 20%. […] The media was replaced every 24 hours and the gel diameter was measured after 48 hours. The extent of contraction was calculated by subtracting the diameter of the well at 48 hours from the initial diameter (15 mm). […]
The experiments described in Example 9 (FIG. 7B) were repeated with cells that express the βPDGFR (Fβ) instead of the αPDGFR, or no PDGFRs (FCX^2). Contraction was scored at the 48 hours time point. […]
To more directly test whether TGFβ could moderate contraction of fibroblasts via the αPDGFR, the response of the three cell lines to purified TGFβ was examined. […] The gel diameter was measured after 24, 48, or 72 hours, and the media was replaced every day.

αPDGFR = target: T2, αPDGFR (Homo sapiens, UniProt P16234); test: Tyrosine phosphorylation of the αPDGFR in TGFβ- or PDGF-treated F cells; format: cell-based; conditions: Fα cells; 50 ng/ml PDGF-BB 5 minutes or 1 ng/ml TGFβ1 5 minutes to 8 hours
T2 construct: expressed in transfected cells; host or cells: F cells (SV-40 immortalized mouse embryo fibroblasts lacking both PDGFRs), giving Fα
T2 sequence (P16234 24-1089): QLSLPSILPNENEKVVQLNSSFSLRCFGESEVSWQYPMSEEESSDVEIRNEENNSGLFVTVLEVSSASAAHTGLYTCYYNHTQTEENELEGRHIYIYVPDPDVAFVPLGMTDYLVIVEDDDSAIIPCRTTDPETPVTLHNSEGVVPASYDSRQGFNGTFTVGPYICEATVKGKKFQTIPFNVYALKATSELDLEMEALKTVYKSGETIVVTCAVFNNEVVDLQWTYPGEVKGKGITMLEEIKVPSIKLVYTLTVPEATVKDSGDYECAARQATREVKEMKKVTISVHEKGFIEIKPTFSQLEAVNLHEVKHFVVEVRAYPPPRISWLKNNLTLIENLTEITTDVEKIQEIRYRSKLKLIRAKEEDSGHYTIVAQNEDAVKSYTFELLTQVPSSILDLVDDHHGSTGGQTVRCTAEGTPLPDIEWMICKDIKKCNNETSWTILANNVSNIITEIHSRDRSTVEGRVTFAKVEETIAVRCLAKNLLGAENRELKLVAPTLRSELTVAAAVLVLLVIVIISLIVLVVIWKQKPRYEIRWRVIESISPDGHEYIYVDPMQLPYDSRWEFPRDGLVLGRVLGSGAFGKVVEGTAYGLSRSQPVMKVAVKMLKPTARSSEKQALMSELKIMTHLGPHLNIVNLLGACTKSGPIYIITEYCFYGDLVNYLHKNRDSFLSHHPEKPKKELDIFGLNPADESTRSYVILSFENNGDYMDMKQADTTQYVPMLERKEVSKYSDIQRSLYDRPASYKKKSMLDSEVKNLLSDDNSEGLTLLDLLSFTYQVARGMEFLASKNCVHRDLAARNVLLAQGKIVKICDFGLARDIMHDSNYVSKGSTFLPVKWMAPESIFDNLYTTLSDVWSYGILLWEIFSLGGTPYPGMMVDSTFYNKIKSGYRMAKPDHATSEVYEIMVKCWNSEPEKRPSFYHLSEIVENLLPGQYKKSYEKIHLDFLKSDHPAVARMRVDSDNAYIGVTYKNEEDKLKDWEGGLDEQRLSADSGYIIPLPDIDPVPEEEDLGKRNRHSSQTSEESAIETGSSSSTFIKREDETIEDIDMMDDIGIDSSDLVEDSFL
Method: To show the effect of TGFβ on αPDGFR, the tyrosine phosphorylation state of the αPDGFR was assayed in TGFβ-treated cells. The F cells with or without PDGFR were grown to 80% confluent and then starved with DMEM containing 1% FBS for 20 hours. Cells were exposed at 37° C. for 5 minutes to either 50 ng/ml of PDGF-BB; with 1 ng/ml of TGFβ1 for 5 minutes, 1 hour, 2 hours, 4 hours, 6 hours or 8 hours; or were left unstimulated. After treatment the cells were washed twice with H/S (20 mM Hepes, pH 7.4, 150 mM NaCl) and then lysed in EB (10 mM Tris-HCl, pH 7.4, 5 mM EDTA, 50 mM NaCl, 50 mM NaF, 1% Triton-X 100, 0.1% BSA, 20 μg/ml aprotinin, 2 mM Na3VO4, 1 mM phenylmethylsulfonyl fluoride; PMSF). Lysates were centrifuged for 15 minutes at 13,000×g, the pellet was discarded and the soluble fraction was used as the total cell lysate. The protein concentration was measured using protein assay kit (Pierce, Rockfield, Ill.) following the manufacture's instructions.
Receptors were immunoprecipitated from the soluble fraction with the 27P antibody (described above). Immune complex was bound to formalin-fixed membranes of Staphylococcus aureus, spun through an EB sucrose gradient, and washed twice with EB, then with PAN (10 mM Pipes, pH 7.0, 100 mM NaCl, 1% aprotinin)+0.5% Nonidet P-40 (NP-40), and finally with PAN. The samples were resuspended in PAN before using for kinase assay or western blotting. […]

NIH 3T3 cells = test: [3H]-thymidine incorporation (entry into S phase) in NIH 3T3 cells expressing mutant receptors; format: cell-based, mouse; conditions: 10% FBS, 22 hours
Method: NIH 3T3 cells expressing either empty vector (EMP) or one of the αPDGFR mutants were trypsinized, resuspended in DMEM with 10% FBS, and plated at a density of 5×10^5 cells/well in 24-well tissue culture plates and cultured overnight. The cells were rinsed twice with phosphate buffered saline (PBS), and serum starved by incubation in 0.5 ml of DMEM with 0.1% FBS and 0.4 mg/ml of bovine serum albumin (BSA; Sigma) for 48 hours. The cells were then exposed to 50 ng/ml of PDGF-AA, 10% Fetal bovine serum (FBS) (v/v), or buffer for 22 hours. The cells were then pulsed for 4 hours in DMEM with 10% FBS containing 0.8 μCi/ml of [^3H]-thymidine (DuPont NEN Research Products). Finally, the cells were washed twice with PBS, and once with 5% trichloro acetic acid, and lysed in 250 μl of 0.25 N NaOH. The lysates were transferred into scintillation tubes containing 50 μl of 6 N HCl, and then 3 ml of scintillation fluid (ICN) was added. The incorporated radioactivity of [^3H]-thymidine uptake was quantitated in a scintillation counter (Packard, Meriden Conn.). The data were expressed as fold induction, which was calculated by dividing stimulated samples by the buffer control. Each condition was assayed triplicate, and the mean±standard deviation (SD) was obtained.

GST-PLCγ = test: In vitro kinase assay of immunoprecipitated mutant αPDGFRs with exogenous substrate; format: biochemical; conditions: 292 immunoprecipitates, [32P]-γ ATP, 30° C., 5 min
Method: Mutant αPDGFRs were selectively immunoprecipitated with the 292 antibody, and samples representing 2×10^5 cells from 292 antibodies were subjected to an in vitro kinase assay. Immunoprecipitates were preincubated with 2 μg of GST protein for 10 min at 0° C., then 2 μg of Glutathione S-transferase fusion phospholipase C-gamma (GST-PLCγ, an exogenous substrate, 10 μCi of γ-[^32P] ATP (DuPont NEN Research Products, Boston, Mass.), and universal kinase buffer (UKB; 20 mM Pipes, pH 7.0, 10 mM MnCl2, 20 μg/ml aprotinin) were added. The samples were incubated at 30° C. for 5 min. The proteins were separated by 7.5% sodium dodecyl sulfate-polyacrylamide gel electrophoresis (SDS-PAGE), the gel was dried, and the radiolabeled protein was detected by autoradiography.

human αPDGFR = test: Tyrosine phosphorylation of the introduced mutant αPDGFR (292 immunoprecipitation from NIH 3T3 cells); format: cell-based, mouse; conditions: 292 antibody IP, RIPA lysis; 50 ng/ml PDGF-AA, 5 minutes
human αPDGFR, sequence (P16234 24-589 limits assumed): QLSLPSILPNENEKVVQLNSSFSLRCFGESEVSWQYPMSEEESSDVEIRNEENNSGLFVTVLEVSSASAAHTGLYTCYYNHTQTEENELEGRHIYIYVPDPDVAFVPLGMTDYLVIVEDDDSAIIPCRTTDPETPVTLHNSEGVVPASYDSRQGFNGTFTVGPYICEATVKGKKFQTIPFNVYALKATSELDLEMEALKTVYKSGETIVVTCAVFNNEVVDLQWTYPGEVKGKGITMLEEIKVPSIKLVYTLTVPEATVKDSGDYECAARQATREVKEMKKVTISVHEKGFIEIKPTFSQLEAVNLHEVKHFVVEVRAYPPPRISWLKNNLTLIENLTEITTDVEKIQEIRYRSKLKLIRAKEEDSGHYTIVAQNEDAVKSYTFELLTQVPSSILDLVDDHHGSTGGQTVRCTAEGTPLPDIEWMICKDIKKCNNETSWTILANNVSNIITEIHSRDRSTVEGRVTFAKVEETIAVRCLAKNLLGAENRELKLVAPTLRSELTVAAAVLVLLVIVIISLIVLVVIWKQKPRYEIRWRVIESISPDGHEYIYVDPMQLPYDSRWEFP
Source text: To characterize the kinase activity of the point mutants, these were immunoprecipitated using the 292 monoclonal antibody, which selectively recognizes an extracellular epitope of the introduced receptor and recognizes all of the mutants used in this study. While PDGF-stimulation is expected to dimerize mutant and wild type receptors, lysing cells in RIPA buffer breaks receptor dimers. Kelly, J. D. et al. (1991) J. Biol. Chem. 266:8987. Consequently, 292 immunoprecipitates are not expected to contain co-immunoprecipitating WT receptor. NIH 3T3 cells expressing the empty vector or receptor mutants were left resting, or stimulated with 50 ng/ml of PDGF-AA for 5 minutes, the cells were lysed in RIPA buffer and the resulting samples were subjected to anti-phosphotyrosine and anti-αPDGFR western blot analysis. In this series of experiments, we included the previously described Fα cell line, which is an NIH 3T3-like cell line that express the introduced human αPDGFR. Andrews, A. et al (1999) Invest. Ophthalmol. Vis. Sci. 40:2683. This cell line was included as a positive control, since the WT receptor in NIH 3T3 cells is mouse, and not recognized by the 292 antibody. As expected, the αPDGFR was immunoprecipitated from the Fα cells, but not the NIH 3T3 cells expressing the empty vector, and PDGF stimulation increased the phosphotyrosine content of the receptor (FIG. 3A). […]

Erk = test: PDGF-dependent activation of Erk in NIH 3T3 cells expressing mutant receptors (anti-phospho-Erk western blot); format: cell-based, mouse; conditions: 50 ng/ml PDGF-AA, 5 minutes
Method: Cells were stimulated as described in Example 2 and 20 μg of total cell lysate was subjected to western blotting analysis using anti-phospho-Erk or anti-Ras GTP-activating protein antibody as an internal control for the amount of protein. The phospho-extracellular signal related kinase (Erk) rabbit polyclonal antibody was purchased from New England Biolabs (Beverly, Mass.) and used at a dilution of 1:1000.

T1 sequence (P09619 33-1106): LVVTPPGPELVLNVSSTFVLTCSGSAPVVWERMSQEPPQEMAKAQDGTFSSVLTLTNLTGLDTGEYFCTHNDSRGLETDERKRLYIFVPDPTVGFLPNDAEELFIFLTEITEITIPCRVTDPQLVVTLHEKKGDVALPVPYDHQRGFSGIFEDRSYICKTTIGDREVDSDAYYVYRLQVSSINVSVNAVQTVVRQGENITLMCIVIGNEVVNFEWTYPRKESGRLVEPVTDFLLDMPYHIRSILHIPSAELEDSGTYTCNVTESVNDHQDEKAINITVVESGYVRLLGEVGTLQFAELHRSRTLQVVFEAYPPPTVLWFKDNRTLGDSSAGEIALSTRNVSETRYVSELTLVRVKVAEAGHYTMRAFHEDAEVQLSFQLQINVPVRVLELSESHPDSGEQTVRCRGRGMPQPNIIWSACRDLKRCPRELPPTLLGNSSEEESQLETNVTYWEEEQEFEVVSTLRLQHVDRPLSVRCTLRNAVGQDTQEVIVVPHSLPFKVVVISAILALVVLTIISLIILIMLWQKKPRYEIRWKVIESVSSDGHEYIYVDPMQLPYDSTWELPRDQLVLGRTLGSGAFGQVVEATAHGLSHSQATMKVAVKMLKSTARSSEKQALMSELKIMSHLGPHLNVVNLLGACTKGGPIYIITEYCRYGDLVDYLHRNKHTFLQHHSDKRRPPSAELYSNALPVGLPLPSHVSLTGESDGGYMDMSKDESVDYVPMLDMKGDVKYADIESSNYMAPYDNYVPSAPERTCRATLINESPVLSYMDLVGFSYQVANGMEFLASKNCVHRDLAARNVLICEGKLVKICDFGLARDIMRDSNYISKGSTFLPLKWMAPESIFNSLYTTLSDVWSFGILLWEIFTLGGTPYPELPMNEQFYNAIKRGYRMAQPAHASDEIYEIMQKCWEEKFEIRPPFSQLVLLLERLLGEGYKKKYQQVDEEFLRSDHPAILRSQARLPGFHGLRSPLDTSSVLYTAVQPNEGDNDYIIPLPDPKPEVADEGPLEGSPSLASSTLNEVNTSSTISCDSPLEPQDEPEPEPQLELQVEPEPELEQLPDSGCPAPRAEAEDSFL

“TGFβ: recombinant human TGFβ1 purchased from R & D systems” was tested, and the “tyrosine phosphorylation of the βPDGFR” value (βPDGFR) was “very modest or undetectable tyrosine phosphorylation”, the TGFβ-induced contraction (FCX^2, Fα and Fβ cells) was “induced contraction of the Fα cells to a much greater extent than either the Fβ cells or the cells that do not express any PDGFR” and the “tyrosine phosphorylation of the αPDGFR” value (αPDGFR) was “increased phosphorylation of the αPDGFR”.

“V859M: human αPDGFR point mutant, valine at position 859 changed to methionine; SEQ ID NO: 10” was tested, and the “[3H]-thymidine incorporation in response to serum” value (NIH 3T3 cells) was “somewhat elevated response to serum” and the “kinase activity towards exogenous substrate GST-PLCγ” value (GST-PLCγ) was “more active than the WT receptor”.

With “D818N: human αPDGFR point mutant, aspartic acid at position 818 changed to asparagine; SEQ ID NO: 8” the “kinase activity towards exogenous substrate GST-PLCγ” value (GST-PLCγ) was “not phosphorylated”, the “basal or PDGF-stimulated tyrosine phosphorylation of the mutant receptor” value (human αPDGFR) was “no detectable” and the “PDGF-dependent activation of Erk” value (Erk) was “failed to fully activated Erk”.
